Among the data in patent US20210130838 are activity values, retold here.

Common to all, as to test: cell_activity
For series [1], the system named is BsCas12a (Butyrivibrio sp.?). Conditions: PAM TTTV.
Series [2] deals with MAD7. The conditions noted are these: PAM TTTV.
The subject of series [3] is CMaCas12a. Conditions: PAM TTTV; rice protoplasts.
In series [4] the test system is TsCas12a (Thiomicrospira sp.?). The conditions noted are these: PAM TTTV; stable transgenic rice.
The test system of series [5] is Lb5Cas12a. The conditions noted are these: PAM TTTV; rice protoplasts.
Series [6] deals with MlCas12a. Conditions: PAM TTTV; rice protoplasts.
In series [7] the test system is Mb2Cas12a.
Series [8] relates to BoCas12a. Conditions: PAM TTTV; rice protoplasts.
The subject of series [9] is MbCas12a. The conditions noted are these: PAM TTTV; rice protoplasts.

As for “AAGAAGGGUUAUGGCCAAUGCUU / TCCATTTGTTTGAAGAAGGGTTATGGCCAATGCTTGCCC / GGGCAAGCATTGGCCATAACCCTTCTTCAAACAAATGGA [crRNA OsEPFL9 spacer 23 nt ; OsEPFL9-TTTV target]”, the activity was over 80 % editing in [1] (stable transgenic rice), over 80 % editing in [2] (stable transgenic rice), 5.1 % editing in series [3] and over 80 % editing in series [4].

Turning to “CAGAAAGAGAAGGAGGCACAGAU / CTTTTCCAGAAAGAGAAGGAGGCACAGATCTTGCCGT / ACGGCAAGATCTGTGCCTCCTTCTCTTTCTGGAAAAG [crRNA OsDEP1-TTTV spacer (inferred) ; OsDEP1-TTTV target]”, the activity came out at 28.8 % editing in series [5]; 13.9 % editing in [6]; 19.7 % editing in [7] (PAM TTTV, rice protoplasts); 7.8 % editing in [8]; 20.1 % editing in series [1] (rice protoplasts); 34.1 % editing in series [2] (rice protoplasts). In addition, the activity in series [3] amounted to 2.7 % editing; in series [9] it was 7.2 % editing.

“CUCAAGGUGAGCGCCCCGCGGCG / GTTCCTCAAGGTGAGCGCCCCGCGGCGGCGGCGGCTG / CAGCCGCCGCCGCCGCGGGGCGCTCACCTTGAGGAAC [crRNA OsDEP1-TTV spacer (inferred) ; OsDEP1-TTV target]” registered an activity in [7] (PAM TTV, 22 C) of 6.4 % indels.

Take “CUGGGCUCGGCGUCCUCGACGUC / GAGTTGCTGGGCTCGGCGTCCTCGACGTCGTCCTCGCCG / CGGCGAGGACGACGTCGAGGACGCCGAGCCCAGCAACTC [crRNA OsR005-TTV spacer (inferred) ; OsR005-TTV target]”: the activity in [7] (PAM TTV, 22 C) turned out to be 8.3 % indels.
